Earlier results in paper PMC5009806.

Biological target: amyloid beta (Homo sapiens) (UniProt P05067)
Test: SPR

**Q.** Which Kd does the source give for Gantenerumab here?
**A.** 0.6 nM
